Results on one protein are retold here after PMC7464691, “Modulation of Amyloidogenic Peptide Aggregation by Photoactivatable CO-Releasing Ruthenium(II) Complexes” (Pharmaceuticals, 2020).

The series concerns the molecule itself. Kind of series: ESI-MS; peptide 100 uM in 10 mM borate buffer pH 9, incubated with compound 2 (1:10) for 0 h (UV-irradiated) or 24 h (not irradiated), diluted in 15 mM ammonium acetate.

B1: nucleophosmin 1 (NPM1) 264-277, second helix (H2) of the C-terminal domain (peptide)
peptide: Ac-VEAKFINYVKNCFR-NH2
notes: nucleophosmin 1 (NPM1), helix H2 of the C-terminal domain, residues 264-277; By ESI-MS the peptide is present as a monomer and as a disulfide-bridged dimer; also called NMP1_(264–277); NPM1_(264–277)(M); source: synthetic peptide (SPPS), treated with HFIP, purified by RP-HPLC
Turning to B1, the “stoichiometry N” value is 2.
